Laboratory results from paper PMC5397183.
Like-named read-outs stand apart in the source and are kept apart here.

T1: FadR WT (native, crystal) (Bacillus halodurans, UniProt Q9K8A4 1-195)
T1 sequence: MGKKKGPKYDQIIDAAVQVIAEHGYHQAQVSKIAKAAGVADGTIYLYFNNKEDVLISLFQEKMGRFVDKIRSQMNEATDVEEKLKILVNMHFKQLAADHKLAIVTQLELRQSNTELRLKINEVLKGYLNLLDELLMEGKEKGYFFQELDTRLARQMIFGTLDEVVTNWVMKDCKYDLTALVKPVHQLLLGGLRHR


What was measured:
[1] = target: Bacillus halodurans FadR (native) (Bacillus halodurans); experiment: crystal structure
[2] = target: Bacillus halodurans FadR (native) (Bacillus halodurans); experiment: crystal structure; remark: listed apart in the source
[3] = target: T1, FadR WT (native, crystal); experiment: X-ray crystallography

Row | Molecule | stoichiometry N [1] | stoichiometry N [2] | binding result [3]
1 | Bacillus halodurans FadR (native) (natural protein) | 2 | 2 | 
2 | 21OH fadR promoter (dsDNA) DNA 1: GATGAATGAATACTCATTCAT DNA 2: CATGAATGAGTATTCATTCAT |  |  | binds
